For experiment [1], the target named is T1, 重组人4-1BB蛋白(ACRO，货号41B-H5227) (human, UniProt Q07011 24-186).
T1 construct: Bought recombinant protein; also called 4-1BB抗原; TNFRSF9
Briefly: SPR (BIAcore), antibody captured on Protein A on a CM5 chip, 4-1BB 20nM-0.31nM as analyte. In general terms: Surface plasmon resonance follows binding to a sensor surface in real time, without labels.

The target of experiment [2] is 人4-1BB on HEK293/Human4-1BB细胞 (human, UniProt Q07011 24-255). Briefly: cell-based or functional assay.
人4-1BB on HEK293/Human4-1BB细胞, sequence (Q07011 24-255): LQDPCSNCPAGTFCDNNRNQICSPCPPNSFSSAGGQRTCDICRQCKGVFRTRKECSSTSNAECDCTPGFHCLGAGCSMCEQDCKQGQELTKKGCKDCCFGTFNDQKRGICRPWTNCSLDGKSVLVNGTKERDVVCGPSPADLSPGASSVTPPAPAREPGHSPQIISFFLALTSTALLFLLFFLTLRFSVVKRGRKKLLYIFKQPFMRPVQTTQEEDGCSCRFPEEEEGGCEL

B1: 抗人4-1BB的单克隆抗体MC03 (antibody, human IgG2, kappa, V domains shown)
VH: EVQLVQSGAEVKKPGATVKISCKASGFNIKDYYIHWVNQAPGKGLEWIGRIDPEDGDIAYAPKFQDRVTLTVDTSTDTAYLELSSLRSEDTAVYYCTTGNYYAMDFWGQGTTVTVSS
VL: QIVLTQSPATLSASPGERVTLSCTASSSVSSSYLHWYQQKPGSSPKLWIYSTSNLASGVPARFSGSGPGTSYTLTISSMEPEDAATYYCHQYHRSPPTFGQGTKLEIKR
notes: Obtained according to PCT/US2020/012080; The isotype control used is human IgG2; also called huG28.21.G2.1.4
B1: binding in experiment [1] was characterised by a dissociation constant (Kd) of 0.918 nM. The “NF-κB报告基因发光值(RLU) EC50” value in experiment [2] came out at 7.69 ng/mL.

For orientation: Kd means the concentration at which binding is half-saturated.

The record behind these values is patent CN113842456A (QILU PHARMACEUTICAL CO LTD, dated 2021).
